Measured values reported in IntAct's records for PubMed 24469400.

B1: Syntaxin-4 (Rattus norvegicus (Rat)), Q08850 (parent)
chain: MRDRTHELRQGDNISDDEDEVRVALVVHSGAARLSSPDDEFFQKVQTIRQTMAKLESKVRELEKQQVTILATPLPEESMKQGLQNLREEIKQLGREVRAQLKAIEPQKEEADENYNSVNTRMKKTQHGVLSQQFVELINKCNSMQSEYREKNVERIRRQLKITNAGMVSDEELEQMLDSGQSEVFVSNILKDTQVTRQALNEISARHSEIQQLERSIRELHEIFTFLATEVEMQGEMINRIEKNILSSADYVERGQEHVKIALENQKKARKKKVMIAICVSVTVLILAVIIGITITVG

Variants of: B1
Settings: with vamp2_rat Vamp2, P63045
Chain of vamp2_rat Vamp2, P63045 (P63045 whole entry): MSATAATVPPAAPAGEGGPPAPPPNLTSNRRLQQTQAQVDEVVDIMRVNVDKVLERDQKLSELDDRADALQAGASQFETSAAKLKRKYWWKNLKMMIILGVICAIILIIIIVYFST

Question: For MRDRTHELRQGDNISDDEDEVRVALVVHSGAARLSSPDDEFFQKVQTIRQTMAKLESKVRELEKQQVTILATPLPEESMKQGLQNLREEIKQLGREVRAQLKAIEPQKEEADENYNSVNTRMKKTQHGVLSQQFVELINKCNSMQSEYREKNVERIRRQLKITNAGMVSDEEAAQMLDSGQSEVFVSNILKDTQVTRQALNEISARHSEIQQLERSIRELHEIFTFLATEVEMQGEMINRIEKNILSSADYVERGQEHVKIALENQKKARKKKVMIAICVSVTVLILAVIIGITITVG [L173A;E174A], which “effect of a mutation on the interaction” value is on record?
Answer: increasing interaction strength
